Data set [1] has as its system I-F1 PA14 Csy complex with Cas2/3 (Pseudomonas aeruginosa PA14). In words: cell_activity. The following applies: CC PAM; interference assay, completely depleted.
Data set [2] deals with Tn6900 Cascade-TniQ, Cas8/5 A247Q+S248N Cas8/5 A247Q,S248N (Aeromonas salmonicida S44). In words: cell_activity. The conditions noted are these: over half of transposition events at PAMs with -1 C.
In data set [3] the test system is Tn6900 Cascade-TniQ wild type (with TnsABC) (Aeromonas salmonicida S44). In words: cell_activity. The conditions noted are these: CC PAM in transposition screen; about 3-fold.
Data set [4] deals with the molecule itself. In words: cryo-EM structure of the Cascade-TniQ full R-loop complex.
Data set [5] has as its target T1, Cas8/5 protein of the I-F3b Tn6900 Cascade (Aeromonas salmonicida S44 (Tn6900 …)).
T1 chain: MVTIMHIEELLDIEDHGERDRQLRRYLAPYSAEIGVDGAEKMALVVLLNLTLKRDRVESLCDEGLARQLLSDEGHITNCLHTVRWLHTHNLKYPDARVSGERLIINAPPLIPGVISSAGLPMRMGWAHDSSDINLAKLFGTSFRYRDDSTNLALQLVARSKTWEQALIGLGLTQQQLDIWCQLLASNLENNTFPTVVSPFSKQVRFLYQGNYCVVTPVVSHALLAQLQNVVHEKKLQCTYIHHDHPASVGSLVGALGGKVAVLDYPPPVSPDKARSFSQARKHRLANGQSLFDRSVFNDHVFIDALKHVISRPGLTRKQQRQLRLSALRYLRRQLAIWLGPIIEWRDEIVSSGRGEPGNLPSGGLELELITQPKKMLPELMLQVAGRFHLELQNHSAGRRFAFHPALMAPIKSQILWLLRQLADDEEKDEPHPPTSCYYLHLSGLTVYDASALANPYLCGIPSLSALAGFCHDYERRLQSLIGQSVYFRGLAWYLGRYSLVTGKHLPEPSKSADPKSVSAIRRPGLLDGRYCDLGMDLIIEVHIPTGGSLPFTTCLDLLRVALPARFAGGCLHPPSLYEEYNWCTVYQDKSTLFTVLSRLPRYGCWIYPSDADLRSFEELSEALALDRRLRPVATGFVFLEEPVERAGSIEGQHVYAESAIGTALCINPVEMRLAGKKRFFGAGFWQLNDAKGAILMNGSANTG
The data set is described as above.

Tn6900 Cascade-TniQ wild type (with TnsABC) (Aeromonas salmonicida S44), sequence (chain, as listed by the source, chain 2 of 2): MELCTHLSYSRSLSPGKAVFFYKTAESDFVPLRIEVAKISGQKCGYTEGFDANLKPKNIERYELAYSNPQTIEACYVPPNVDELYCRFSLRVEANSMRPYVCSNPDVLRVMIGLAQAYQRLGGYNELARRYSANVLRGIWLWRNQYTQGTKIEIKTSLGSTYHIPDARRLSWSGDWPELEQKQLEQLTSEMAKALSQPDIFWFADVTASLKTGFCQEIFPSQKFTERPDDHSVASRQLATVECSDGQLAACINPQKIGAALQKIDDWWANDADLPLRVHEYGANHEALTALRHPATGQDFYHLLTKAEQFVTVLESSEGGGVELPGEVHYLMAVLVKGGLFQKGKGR
Tn6900 Cascade-TniQ wild type (with TnsABC) (Aeromonas salmonicida S44), sequence (chain, as listed by the source, chain 3 of 2): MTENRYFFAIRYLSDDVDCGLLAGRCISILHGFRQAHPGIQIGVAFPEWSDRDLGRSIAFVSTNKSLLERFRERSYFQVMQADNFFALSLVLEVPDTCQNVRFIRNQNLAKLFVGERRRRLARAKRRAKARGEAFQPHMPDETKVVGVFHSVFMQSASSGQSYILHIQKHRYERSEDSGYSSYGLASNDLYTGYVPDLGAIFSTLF
Tn6900 Cascade-TniQ, Cas8/5 A247Q+S248N Cas8/5 A247Q,S248N (Aeromonas salmonicida S44), sequence (chain, as listed by the source A247Q S248N A247Q S248N, chain 2 of 2): as the sequence (chain, as listed by the source, chain 2 of 2) above
Tn6900 Cascade-TniQ, Cas8/5 A247Q+S248N Cas8/5 A247Q,S248N (Aeromonas salmonicida S44), sequence (chain, as listed by the source A247Q S248N A247Q S248N, chain 3 of 2): as the sequence (chain, as listed by the source, chain 3 of 2) above

Consider PA14 crRNA-ffs ; CC-PAM ffs target, for which the enrichment after interference (depletion) (enrichment (depletion)) in data set [1] was less than 0.005.
In turn, “atypical crRNA ffs (60 nt) ; NN-PAM ffs plasmid pool” registered a share of transposition events at PAMs with -1 C (% of events with C at -1) in data set [2] greater than 50.
With “atypical crRNA ffs (60 nt) ; CC-PAM ffs target”, the binding signal (fold enrichment) in data set [3] is 3.

B1: TniQ subunit (monomer) of the TniQ homo-dimer (other)
chain: MHLLVRPEPFADEALESYFLRLSQENGFERYRIFSGSVQDWLHTTDHAAAGAFPLELSRLNIFHASRSSGLRVRALQLVDRLTDGAPFRLLQLALCHSAISFGNHYKAVHRSGVDIPLSFIRVHQIPCCPDCLRESAYVRQCWHFKPYVGCHRHGGRLIYSCPACGESLNYLASESINHCQCGFDLRTASTVPAQPDEIQLSALAYGCSFESSNPLLAIGSLSARFGALYWYQQRYLSDHEAVRDDRALTKAIGHFTAWPDAFWRELQQMVDDALVRQTKPLNHTDFVDVFGSVVADCRQIPMRNTGQNFILKNLIGFLTDLVARHPQCRVANVGDLLLSAVDAATLLSTSVEQVRRLHHEGFLPLSIRPASRNTVSPHRAVFHLRHVVELRQARMQSHHDHSSTYLPAW
notes: One chain of the dimer, entered to record the self-association of TniQ; also called TniQ.1; TniQ.2; not shown: His6 tag named only in the plasmid name (pCOLADuet-1-His6-tniQ)
In the case of B1, the binding result in data set [4] was “binds”.

B2: TniQ transposition protein of the I-F3b element Tn6900 (Aeromonas salmonicida S44), homo-dimer as associated with Cascade (other)
chain: B1 chain
notes: Expressed in E. coli together with Cascade and purified as the Cascade-TniQ complex over Ni-NTA through the His6 tag on TniQ; also called His6-TniQ; TniQ dimer; not shown: His6 tag named only in the plasmid name (pCOLADuet-1-His6-tniQ)
On to B2, for which the binding result in data set [5] is recorded as “binds”.

These data come from US20250327069A1 (CORNELL UNIVERSITY, published 2025).
